Legend:
Human DLL3-His = molecular target: T1, Human DLL3-His (human, UniProt Q9NYJ7 27-492); assay: SPR (ProteOn XPR36), bispecific captured on protein A/G, hu DLL3 as analyte, Example 4B
T1 construct: also called huDLL3-His; hu DLL3
T1 sequence: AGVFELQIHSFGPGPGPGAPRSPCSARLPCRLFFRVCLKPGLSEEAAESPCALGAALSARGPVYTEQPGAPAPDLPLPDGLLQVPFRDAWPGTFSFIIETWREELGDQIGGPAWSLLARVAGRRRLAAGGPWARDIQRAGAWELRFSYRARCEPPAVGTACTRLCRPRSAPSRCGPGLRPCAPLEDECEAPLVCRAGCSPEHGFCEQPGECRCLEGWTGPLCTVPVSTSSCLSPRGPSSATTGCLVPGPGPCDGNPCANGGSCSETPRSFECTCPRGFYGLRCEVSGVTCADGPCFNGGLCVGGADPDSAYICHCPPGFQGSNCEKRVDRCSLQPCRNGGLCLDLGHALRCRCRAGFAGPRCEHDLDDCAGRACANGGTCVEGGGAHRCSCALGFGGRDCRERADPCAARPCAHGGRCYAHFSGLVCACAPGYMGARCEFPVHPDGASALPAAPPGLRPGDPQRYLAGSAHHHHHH
Outline: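 Bispecific constructs captured on protein A/G for 200 s at 30 μl/min, baseline stabilized with PBS-T-EDTA. Human DLL3 analyte injected 300 s at 30 μl/min; dissociation followed for 1800 s.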

[1] = molecular target: T2, trypsin inhibitor from glycine max soybean (Glycine max (soybean)); assay: SPR (Biacore T200), trypsin inhibitor on CM5 chip, sample at 1 µM
T2 construct: also called Tryp
Excerpt: To prepare the surface for the non-specific binding experiment, chicken egg white lysozyme and trypsin inhibitor from glycine max soybean were coupled manually to a series S CM5 chip with the surface density of 3000-5000 RU using the amine coupling kit according to the manufacture instructions.

[2] = molecular target: T3, human DLL3 (endogenous, on SCLC cell lines NCI-H82 and SHP77 and in SCLC tissue) (human, UniProt Q9NYJ7 27-618); assay: flow cytometry titration on SHP77 cells, PE anti-human secondary, x-fold over background
T3 construct: whole, on cells; also called SCLC cell lines expressing DLL3
T3 sequence (looked up): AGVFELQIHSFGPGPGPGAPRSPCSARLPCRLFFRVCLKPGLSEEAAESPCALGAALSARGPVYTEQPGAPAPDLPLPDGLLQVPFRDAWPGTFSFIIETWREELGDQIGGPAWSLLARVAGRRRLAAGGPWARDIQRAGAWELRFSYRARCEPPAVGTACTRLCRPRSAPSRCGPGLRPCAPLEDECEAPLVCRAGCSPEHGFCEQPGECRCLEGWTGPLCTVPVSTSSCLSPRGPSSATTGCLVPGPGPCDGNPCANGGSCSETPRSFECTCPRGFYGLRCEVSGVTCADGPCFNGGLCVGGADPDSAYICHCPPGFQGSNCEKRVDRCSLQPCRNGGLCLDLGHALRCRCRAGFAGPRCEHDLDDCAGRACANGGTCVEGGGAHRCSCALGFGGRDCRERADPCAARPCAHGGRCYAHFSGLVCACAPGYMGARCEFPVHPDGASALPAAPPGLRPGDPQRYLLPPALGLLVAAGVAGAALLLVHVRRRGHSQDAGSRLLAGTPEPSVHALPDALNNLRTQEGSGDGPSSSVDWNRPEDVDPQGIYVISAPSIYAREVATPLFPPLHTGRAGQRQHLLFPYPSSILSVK
Excerpt: Cells (T cells or human SCLC cells) were stained with increasing concentrations of two-step purified DLL3/CD3 binding proteins with increasing concentrations in FACS buffer (PBS/0.5% BSA/0.05% sodium azide). Bound molecules were detected with PE-conjugated anti-human secondary antibody (Sigma-Aldrich, #P8047).

T2 sequence (P01070 25-205): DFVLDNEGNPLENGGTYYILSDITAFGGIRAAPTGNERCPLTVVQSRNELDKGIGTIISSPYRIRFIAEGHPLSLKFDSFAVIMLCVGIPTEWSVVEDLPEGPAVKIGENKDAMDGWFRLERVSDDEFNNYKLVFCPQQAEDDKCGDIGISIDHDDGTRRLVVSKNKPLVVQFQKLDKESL

B1: DLL3#17/CD3#1 (bispecific antibody, human IgG1, kappa, lambda, L234A L235A)
chain 1: DIQMTQSPASLAASVGETVTITCRASENIYYSLAWYQQKQGKSPQLLIYNTNSLEDGVPSRFSGSGSGTQYSMKINSMQPEDTATYFCKQAYDFPLTFGAGTKLELKRTVAAPSVFIFPPSDEQLKSGTASVVCLLNNFYPREAKVQWKVDNALQSGNSQESVTEQDSKDSTYSLSSTLTLSKADYEKHKVYACEVTHQGLSSPVTKSFNRGECGGGGSEGKSSGSGSESKSTEGKSSGSGSESKSTGGGGSQIQLQQSGPEVVKPGASVKISCKASGYTFISYYIHWVKQRPGQGLEWIGWIYPGDGSTNNNEKFKGKTTLTADKSSSTAYMLLSSLTSEDSAVYFCARGEGNAMDDWGQGTSVTVSSASTKGPSVFPLAPSSKSTSGGTAALGCLVKDYFPEPVTVSWNSGALTSGVHTFPAVLQSSGLYSLSSVVTVPSSSLGTQTYICNVNHKPSNTKVDKRVEPKSCDKTHTCPPCPAPEAAGGPSVFLFPPKPKDTLMISRTPEVTCVVVDVSHEDPEVKFNWYVDGVEVHNAKTKPREEQYNSTYRVVSVLTVLHQDWLNGKEYKCKVSNKALPAPIEKTISKAKGQPREPQVYTLPPSREEMTKNQVSLWCLVKGFYPSDIAVEWESNGQPENNYKTTPPVLDSDGSFFLYSKLTVDKSRWQQGNVFSCSVMHEALHNHYTQKSLSLSPG
chain 2: EAVVTQEPSLTVSPGGTVTLTCRSSTGAVTTSNYANWVQEKPGQLPRGLIGGTNKRAPWVPARFSGSLLGGKAALTLSGAQPEDEAEYFCALWYSNLWVFGGGTKLTVLGQPKAAPSVTLFPPSSEELQANKATLVCLISDFYPGAVKVAWKADGSPVNTGVETTTPSKQSNNKYAASSYLSLTPEQWKSHRSYSCQVTHEGSTVEKTVAPAECSGGGGSEGKSSGSGSESKSTEGKSSGSGSESKSTGGGGSEVQLVESGGGLVQPGGSLKLSCAASGFTFNTYAMNWVRQAPGKGLEWVARIRSKYNNYATYYADSVKDRFTISRDDSKNTAYLQMNNLKTEDTAVYYCVRHGNFGNSYVSWFAYWGQGTLVTVSAASTKGPSVFPLAPSSKSTSGGTAALGCLVKDYFPEPVTVSWNSGALTSGVHTFPAVLQSSGLYSLSSVVTVPSSSLGTQTYICNVNHKPSNTKVDKRVEPKSCDKTHTCPPCPAPEAAGGPSVFLFPPKPKDTLMISRTPEVTCVVVDVSHEDPEVKFNWYVDGVEVHNAKTKPREEQYNSTYRVVSVLTVLHQDWLNGKEYKCKVSNKALPAPIEKTISKAKGQPREPQVYTLPPSREEMTKNQVSLSCAVKGFYPSDIAVEWESNGQPENNYKTTPPVLDSDGSFFLVSKLTVDKSRWQQGNVFSCSVMHEALHNRFTQKSLSLSPG
notes: Heterodimer of one DLL3 chain and one CD3 chain (scFab-Fc, knob-in-hole)
Kd (Human DLL3-His): < 0.02 nM | Non-specific binding (RU) [1]: 8 RU | EC50 (read off the curve) [2]: ~2 nM

B2: DLL3#18/CD3#1 (bispecific antibody, human IgG1, kappa, lambda, L234A L235A)
chain 1: DIQMTQSPASLAASVGETVTITCRASENIYYSLAWYQQKQGKSPQLLIYNANSLEDGVPSRFSGSGSGTQYSMKINNMQPEDTATYFCKQAYDVPLTFGAGTKLELKRTVAAPSVFIFPPSDEQLKSGTASVVCLLNNFYPREAKVQWKVDNALQSGNSQESVTEQDSKDSTYSLSSTLTLSKADYEKHKVYACEVTHQGLSSPVTKSFNRGECGGGGSEGKSSGSGSESKSTEGKSSGSGSESKSTGGGGSQVQLQQSGPDLVKPGASVKMSCEASGYTFTAYFIHWVKQKPGQGLEWIGYIDPFNDDTNYNVKFKGKATLTSDTSSSIAYMELSSLTSEDSSFYYCARGTSATLDYWGHGTTLTVSSASTKGPSVFPLAPSSKSTSGGTAALGCLVKDYFPEPVTVSWNSGALTSGVHTFPAVLQSSGLYSLSSVVTVPSSSLGTQTYICNVNHKPSNTKVDKRVEPKSCDKTHTCPPCPAPEAAGGPSVFLFPPKPKDTLMISRTPEVTCVVVDVSHEDPEVKFNWYVDGVEVHNAKTKPREEQYNSTYRVVSVLTVLHQDWLNGKEYKCKVSNKALPAPIEKTISKAKGQPREPQVYTLPPSREEMTKNQVSLWCLVKGFYPSDIAVEWESNGQPENNYKTTPPVLDSDGSFFLYSKLTVDKSRWQQGNVFSCSVMHEALHNHYTQKSLSLSPG
chain 2: B1 chain 2
notes: as for B1
Kd (Human DLL3-His): < 0.02 nM | Non-specific binding (RU) [1]: 81 RU | EC50 (read off the curve) [2]: ~2 nM

B3: DLL3#13/CD3#1 (bispecific antibody, human IgG1, kappa, lambda, L234A L235A)
chain 1: DVLMTQTPLSLPVSLGDQAAISCRSSQSIVHSNGNTYLEWYLQKPGQSPKVLIYKVSNRFSGVPDRFSGSGSGTDFTLKISRVEAEDLGVYYCFQGSHVPYTFGGGTKLEIKRTVAAPSVFIFPPSDEQLKSGTASVVCLLNNFYPREAKVQWKVDNALQSGNSQESVTEQDSKDSTYSLSSTLTLSKADYEKHKVYACEVTHQGLSSPVTKSFNRGECGGGGSEGKSSGSGSESKSTEGKSSGSGSESKSTGGGGSQIQLVQSGPELKKPGETVKISCKASGYTFTNYGVTWVKQAPGKGLKWMGWINTYSGAPTYADDFNGRFALSLETSASTAYLQINNLKNEDTATYFCARLDDYDLYYFDYWGQGTALTVSSASTKGPSVFPLAPSSKSTSGGTAALGCLVKDYFPEPVTVSWNSGALTSGVHTFPAVLQSSGLYSLSSVVTVPSSSLGTQTYICNVNHKPSNTKVDKRVEPKSCDKTHTCPPCPAPEAAGGPSVFLFPPKPKDTLMISRTPEVTCVVVDVSHEDPEVKFNWYVDGVEVHNAKTKPREEQYNSTYRVVSVLTVLHQDWLNGKEYKCKVSNKALPAPIEKTISKAKGQPREPQVYTLPPSREEMTKNQVSLWCLVKGFYPSDIAVEWESNGQPENNYKTTPPVLDSDGSFFLYSKLTVDKSRWQQGNVFSCSVMHEALHNHYTQKSLSLSPG
chain 2: B1 chain 2
notes: as for B1
Kd (Human DLL3-His): 0.023 nM | Non-specific binding (RU) [1]: 3 RU | EC50 (read off the curve) [2]: ~2 nM
